The test addresses peptide of Example 1 (influenza virus). Kind of test: SPR, mAb captured on anti-mouse Fc, peptide injected.

B1: F211-9D1 (antibody, V domains shown)
VL: DIVMSQSPSSLAVSVGEKVTMSCKSSQSLLNSRNQKNHLAWYQQKPGQSPKLLIYWASTRESGVPDRFSGDGSGTDFTLTISSVKAEDLAVYYCQQYYTYRTFGGGTKLEIK
VH: DVQLQESGPGLVKPSQSLSLTCSVTGYSITSDYYWNWIRQFPGNKLEWMAYIGYDGSKNYNPSLKNRISITRDTSKNQFFLKLNSVTTDDTATYYCTRDRANWDDYFDYWGQGTTLTVSS
Take B1: the Kd was determined as 0.393 nM.

Values taken from patent publication US20190352376A1.
